Assay results reported in paper PMC12310515.

Target: RBK21 variable region (residues 148-299) (P. falciparum (field isolate Lek174))
Assay: SPR

Chain of KIR2DL1 (residues 27-221) (P43626 27-221): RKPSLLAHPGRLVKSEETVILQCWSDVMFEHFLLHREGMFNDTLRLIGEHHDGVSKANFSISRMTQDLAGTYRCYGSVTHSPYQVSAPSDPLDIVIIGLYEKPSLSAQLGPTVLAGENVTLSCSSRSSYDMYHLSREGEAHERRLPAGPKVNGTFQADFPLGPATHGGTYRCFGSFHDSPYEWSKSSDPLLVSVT
Chain of KIR2DS1 (SPR protein) (Q14954 22-245): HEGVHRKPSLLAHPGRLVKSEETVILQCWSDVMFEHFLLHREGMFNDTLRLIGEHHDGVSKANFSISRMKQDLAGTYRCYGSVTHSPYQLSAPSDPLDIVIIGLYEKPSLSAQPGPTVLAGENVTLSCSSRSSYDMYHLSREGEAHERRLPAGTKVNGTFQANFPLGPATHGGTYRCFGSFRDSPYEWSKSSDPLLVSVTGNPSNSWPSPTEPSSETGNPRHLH

| Substance | Kd |
| --- | --- |
| KIR2DL1 (residues 27-221) (from UniProt P43626 27-221) (domain or fragment) | 0.5 µM |
| KIR2DS1 (SPR protein) (from UniProt Q14954) (receptor) | 1.7 µM |
